Reference: article PMC11297931, “Structural basis of Cdk7 activation by dual T-loop phosphorylation” (Nature Communications, 2024)

B1: MBP-Mat1_(230-309) (domain or fragment, human, UniProt P51948 230-309, looked up)
chain: GQHISLAPIHKLEEALYEYQPLQIETYGPHVPELEMLGRLGYLNHVRAASPQDLAGGYTSSLACHRALQDAFSGLFWQPS
notes: source: Sf9 (baculovirus), expressed separately from Cdk7/Cyclin H; purified as an MBP fusion protein; also in lysate (pooled with GST-Cdk7/Cyclin H lysate); not shown: MBP, N-terminal, kept
B2: VHH_(RD7-04), form for co-crystallization (VHH)
VHH: QVQLVESGGGLVQPGGSLRLSCVASGFTFKNFYMGWVRQAPDKGLEWVATINSGGEIQSYADSVKGRFTISRDNAKNTLYLQMNNLRPEDTAVYYCSKQSSTPAKGQGTQVTVSS
notes: nanobody chain of the deposited structure PDB 8PYR; Expression construct pelB-His6-TEV-NB in a modified pET28a vector; also called nanobody VHH RD7-04; chaperoning nanobody; source: E. coli BL21 (DE3), periplasmic extract, purified (HisTrap, TEV, SEC, reverse Ni-NTA); not shown: His6, N-terminal, cleaved

Key:
[1] = molecular target: Cdk7(R167A)/Cyclin H binary complex (human, UniProt P50613 2-346; P51946 1-323, R167A); test: cell-based or functional assay
[2] = molecular target: T1, wild-type Cdk7/Cyclin H binary complex, doubly phosphorylated (human, UniProt P50613 2-346; P51946 1-323, phosphoserine at 164; phosphothreonine at 170 | M1 acetylated); test: cell-based or functional assay
[3] = molecular target: T1, wild-type Cdk7/Cyclin H binary complex, …; test: SPR; MBP-Mat1(230-309) (15 nM) captured by anti-MBP antibody amine-coupled to a CM5 chip; Cdk7/Cyclin H complexes as analyte, multi-cycle kinetics, up to 150 nM, association 180 s, dissociation 900 s; 25 °C; 10 mM HEPES pH 7.4, 150 mM NaCl, 0.05% Tween20; steady-state affinity fit; Biacore 8K; conditions: both partners purified
[4] = molecular target: T2, Mat1 (230-309) (human, UniProt P51948); test: crystal structure; Cdk7/Cyclin H/Mat1(230-309) mixed 1:1 with VHH RD7-04, with 1 mM ADP/Mg2+; hanging drop, 0.1 M Hepes pH 7.0, PEG 6K/4K, 15 °C; 2.15 Å; conditions: both partners purified
T2 construct: also called C-terminal fragment of Mat1; source: lysate pooled with GST-Cdk7/Cyclin H lysate; purified (MBPTrap, TEV, SEC, reverse MBP and GST); not shown: MBP, N-terminal, cleaved

T1 sequence (P50613 2-346, chain 1 of 2): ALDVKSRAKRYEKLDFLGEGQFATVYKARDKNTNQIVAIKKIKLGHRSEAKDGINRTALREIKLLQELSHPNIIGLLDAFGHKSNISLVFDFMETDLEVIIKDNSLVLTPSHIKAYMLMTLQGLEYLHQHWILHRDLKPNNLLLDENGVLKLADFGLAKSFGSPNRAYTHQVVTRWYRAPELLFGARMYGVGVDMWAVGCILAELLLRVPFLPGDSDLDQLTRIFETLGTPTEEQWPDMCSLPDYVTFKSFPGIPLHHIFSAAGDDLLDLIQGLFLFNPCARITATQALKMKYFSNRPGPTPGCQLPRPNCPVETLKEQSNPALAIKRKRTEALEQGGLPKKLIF
T1 sequence (P51946 whole entry, chain 2 of 2): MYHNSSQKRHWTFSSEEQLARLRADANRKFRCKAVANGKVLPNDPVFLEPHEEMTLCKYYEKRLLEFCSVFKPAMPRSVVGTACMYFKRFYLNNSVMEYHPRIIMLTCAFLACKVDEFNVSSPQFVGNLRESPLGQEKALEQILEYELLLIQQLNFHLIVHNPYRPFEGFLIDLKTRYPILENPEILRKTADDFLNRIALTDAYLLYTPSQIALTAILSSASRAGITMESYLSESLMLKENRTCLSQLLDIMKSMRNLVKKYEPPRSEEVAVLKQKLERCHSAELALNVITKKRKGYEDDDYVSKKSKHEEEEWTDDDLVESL
Chain of Cdk7(R167A)/Cyclin H binary complex (P50613 2-346 R167A, chain 1 of 2): as the sequence (P50613 2-346, chain 1 of 2) above, with R166A counted along it
Chain of Cdk7(R167A)/Cyclin H binary complex (P51946 whole entry, chain 2 of 2): as the sequence (P51946 whole entry, chain 2 of 2) above

Binder	stimulation of kinase activity by Mat1 addition, normalized to the complex without Mat1 (Fig. 3f) [1]	stimulation of kinase activity by Mat1 addition, normalized to the complex without Mat1 (Fig. 3f) [2]	Kd [3]	binding result [4]
B1	~5 fold	~10 fold	9.8 nM	–
B2	–	–	–	binds
